This note sets out measurements from article PMC8249414.

The target in the assay is nucleosome core particle with 167 bp '601' DNA (167NCP).

Turning to “ALC1 (1-673) D381A mutant (from UniProt Q86WJ1 1-673) (domain or fragment)”, the Km of nucleosome remodeling (enzyme 10-640 nM), against ALC1 (1-673) stood at 2 fold.
